Results from patent US20190162720A1.

Key:
[1] = target: C-Reactive protein (CRP, R&D Systems, Inc., 1707-CR-200, Mouse myeloma cell line) (UniProt P02741); experiment: SPR Biacore T200; CRP 1.0 µg/mL fed over antibody held through protein G (Example 6)
[2] = target: C-Reactive protein (CRP, R&D Systems, Inc., 1707-CR-200, Mouse myeloma cell line) (UniProt P02741); experiment: SPR Biacore T200; CRP 1.0 µg/mL fed over antibody held through protein A/G (6) (Example 12)
[3] = target: C-Reactive protein (CRP, R&D Systems, Inc., 1707-CR-200, Mouse myeloma cell line) (UniProt P02741); experiment: SPR Biacore T200; CRP 1.0 µg/mL fed over antibody held through protein A/G (6) (Example 17)
[4] = target: C-Reactive protein (CRP, R&D Systems, Inc., 1707-CR-200, Mouse myeloma cell line) (UniProt P02741); experiment: SPR Biacore T200; CRP 1.0 µg/mL fed over antibody held through protein A/G (8) (Example 11)
[5] = target: C-Reactive protein (CRP, R&D Systems, Inc., 1707-CR-200, Mouse myeloma cell line) (UniProt P02741); experiment: SPR Biacore T200; CRP 1.0 µg/mL fed over antibody held through protein A/G (6) (Example 7)
[6] = target: C-Reactive protein (CRP, R&D Systems, Inc., 1707-CR-200, Mouse myeloma cell line) (UniProt P02741); experiment: SPR Biacore T200; CRP 1.0 µg/mL fed over antibody held through protein A/G (6) (Example 9)
[7] = target: C-Reactive protein (CRP, R&D Systems, Inc., 1707-CR-200, Mouse myeloma cell line) (UniProt P02741); experiment: SPR Biacore T200; CRP 1.0 µg/mL fed over antibody coupled covalently (EDC/s-NHS) to the SAM; corrected with anti-IL6 reference interface (Comparative Example 2)
[8] = target: C-Reactive protein (CRP, R&D Systems, Inc., 1707-CR-200, Mouse myeloma cell line) (UniProt P02741); experiment: SPR Biacore T200; CRP 1.0 µg/mL fed over antibody held through protein A/G (8) (Example 8)
[9] = target: C-Reactive protein (CRP, R&D Systems, Inc., 1707-CR-200, Mouse myeloma cell line) (UniProt P02741); experiment: SPR Biacore T200; CRP 1.0 µg/mL fed over antibody held through protein A/G (6) (Example 15)
[10] = target: C-Reactive protein (CRP, R&D Systems, Inc., 1707-CR-200, Mouse myeloma cell line) (UniProt P02741); experiment: SPR Biacore T200; CRP 1.0 µg/mL fed over antibody held through protein A/G (6) (Example 16)
[11] = target: C-Reactive protein (CRP, R&D Systems, Inc., 1707-CR-200, Mouse myeloma cell line) (UniProt P02741); experiment: SPR Biacore T200; CRP 1.0 µg/mL fed over antibody held through protein A/G (6) (Example 13)
[12] = target: C-Reactive protein (CRP, R&D Systems, Inc., 1707-CR-200, Mouse myeloma cell line) (UniProt P02741); experiment: SPR Biacore T200; CRP 1.0 µg/mL fed over antibody held through protein A/G (6) (Example 10)
[13] = target: C-Reactive protein (CRP, R&D Systems, Inc., 1707-CR-200, Mouse myeloma cell line) (UniProt P02741); experiment: SPR Biacore T200; CRP 1.0 µg/mL fed over antibody held through protein A/G (6) (Example 14)
[14] = target: anti-mPEG monoclonal antibody (Abcam plc., ab51257, Mouse monoclonal, Anti-Polyethylene glycol antibody [PEG-B-47]); experiment: SPR Biacore T200; protein A/G (eight domains) 119 µg/mL fed over anti-mPEG antibody on the mPEG chip (Example 11)
[15] = target: anti-biotin monoclonal antibody (Abcam plc., ab36406, Mouse monoclonal); experiment: SPR Biacore T200; protein A/G (eight domains) 30 µg/mL fed over anti-biotin monoclonal antibody on the chip (Example 8)
[16] = target: anti-CRP antibody (R&D Systems, Inc., Human C-Reactive protein Antibody, Monoclonal Mouse IgG2B, MAB17071-500); experiment: SPR Biacore T200; anti-CRP antibody 100 µg/mL fed over protein A/G (8) held on the first antibody (Example 8)
[17] = target: anti-CRP antibody (R&D Systems, Inc., Human C-Reactive protein Antibody, Monoclonal Mouse IgG2B, MAB17071-500); experiment: SPR Biacore T200; anti-CRP antibody 100 µg/mL fed over protein A/G (8) held on anti-mPEG antibody (Example 11)
[18] = target: anti-biotin monoclonal antibody (Abcam plc., ab36406, Mouse monoclonal); experiment: SPR Biacore T200; protein G 40 µg/mL fed over anti-biotin monoclonal antibody on the chip (Example 6)
[19] = target: anti-CRP antibody (R&D Systems, Inc., Human C-Reactive protein Antibody, Monoclonal Mouse IgG2B, MAB17071-500); experiment: SPR Biacore T200; anti-CRP antibody 100 µg/mL fed over protein G held on the first antibody (Example 6)

Sequence of UniProt P02741 (P02741 19-224 limits assumed): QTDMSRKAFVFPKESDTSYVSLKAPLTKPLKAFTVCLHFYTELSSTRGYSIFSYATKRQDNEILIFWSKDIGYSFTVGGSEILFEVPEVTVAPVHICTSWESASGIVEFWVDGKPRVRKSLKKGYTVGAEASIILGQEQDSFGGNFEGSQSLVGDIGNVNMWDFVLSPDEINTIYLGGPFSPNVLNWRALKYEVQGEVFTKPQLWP

## anti-CRP antibody (R&D Systems, Inc., Human C-Reactive protein Antibody, Monoclonal Mouse IgG2B, MAB17071-500)
[1]
  Amount of antigen bound: 513 RU
[2]
  Amount of antigen bound: 508 RU
[3]
  Amount of antigen bound: 481 RU
[4]
  Amount of antigen bound: 536 RU
[5]
  Amount of antigen bound: 422 RU
[6]
  Amount of antigen bound: 408 RU
[7]
  Amount of antigen bound: 284 RU
[8]
  Amount of antigen bound: 745 RU
[9]
  Amount of antigen bound: 519 RU
[10]
  Amount of antigen bound: 514 RU
[11]
  Amount of antigen bound: 560 RU
[12]
  Amount of antigen bound: 663 RU
[13]
  Amount of antigen bound: 630 RU

## protein A/G (BioVision Incorporated, 6502, Recombinant Protein A/G from E. coli, eight domains)
[14]
  amount of the protein A/G immobilized: 820 RU
[15]
  amount of the protein A/G immobilized: 868 RU
[16]
  Amount of second antibody immobilized: 3460 RU
[17]
  Amount of second antibody immobilized: 3210 RU

## protein G (BioVision Incorporated, 6501, recombinant protein G, three domains)
[18]
  amount of the protein G immobilized: 841 RU
[19]
  Amount of second antibody immobilized: 2010 RU
